Results on one substance are retold here after publication PMC9829174.

The series deals with His6MBP-MP (TMV movement protein, 30 kDa) (Tobacco mosaic virus). Kind of series: EMSA. Conditions: 20 mM Tris-HCl pH 7.5, 35 mM KCl, 3.5 mM MgCl2, 5 U RNaseOUT, 10 ul, 30 min at 4 C; 6% native PAGE at 4 C, RNA blot detection; ssDNA/dsDNA competitors were …. For orientation: Mobility shift assays separate free from complexed probe on a gel.

As for PSTVd WT full-length transcript, folded, the K half was 36 nM.
